Our source for the stoichiometry N values is publication PMC5705260.

Assay [1] concerns the target ArtB (Salmonella enterica serovar Typhimurium DT104) (UniProt Q404H3). Put plainly: ion exchange chromatography + SEC.
The target is the same in assay [2]. Put plainly: co-purification of co-expressed subunits.
For assay [3], the target named is ArtB-His6 (Salmonella enterica serovar Typhimurium DT104) (UniProt Q404H3). Put plainly: crystal structure.
The target of assay [4] is PltB-His6 (Salmonella Typhi) (UniProt Q8Z6A3). Put plainly: crystal structure.

The stoichiometry N is the number of molecules, sites or subunits per partner or assembly.

Consider “ArtB (from UniProt Q404H3 1-141) (natural protein)”, for which the stoichiometry N in assay [1] and in assay [2] was 5 each time.
Regarding “ArtB-His6 (from UniProt Q404H3 1-141) (natural protein)”, the stoichiometry N in assay [3] was 5.
Regarding “PltB-His6 (from UniProt Q8Z6A3 1-137) (natural protein)”, the stoichiometry N in assay [4] was 5.
